Measurements taken from the Human Domainome abundance scans (Beltran et al. 2025).
± gives the uncertainty stated by the source.

B1: Chromodomain-helicase-DNA-binding protein 4, residues 623 to 675; numbered along this chain, Q14839 (parent)
chain: MIHRILNHSVDKKGHVHYLIKWRDLPYDQASWESEDVEIQDYDLFKQSYWNHR

Variants of: B1
Test: abundance fitness (aPCA) (normalised: wild type 0, dead -1); higher = more abundant; growth selection in yeast, the domain comes from the species named
Settings: Homo sapiens

Abundance fitness, by site and new letter:
R53: H -0.185 ± 0.3 | W -0.044 ± 0.16 | S -0.141 ± 0.19 | T -0.221 ± 0.18 | E -0.189 ± 0.25 | P -0.481 ± 0.28 | Y 0.011 ± 0.2 | K -0.22 ± 0.22 | N -0.313 ± 0.48 | D -0.161 ± 0.26 | V -0.09 ± 0.14 | Q 0.025 ± 0.27 | L -0.104 ± 0.21 | C -0.086 ± 0.21
N51: V -0.341 ± 0.1 | H -0.23 ± 0.14 | F -0.11 ± 0.2 | C -0.428 ± 0.15 | R 0.105 ± 0.089 | I -0.564 ± 0.23 | M 0.01 ± 0.12 | S -0.079 ± 0.1 | L -0.194 ± 0.089 | Y -0.267 ± 0.21 | D 0.01 ± 0.16 | Q 0.004 ± 0.14 | A 0.014 ± 0.1 | T 0.037 ± 0.13 | W -0.45 ± 0.12 | K -0.167 ± 0.13
D43: T -0.367 ± 0.12 | Y -0.253 ± 0.15 | W -0.219 ± 0.13
W50: S -0.653 ± 0.11 | K -0.511 ± 0.17 | L -0.811 ± 0.11 | D -1.23 ± 0.26 | H -0.779 ± 0.26 | R -0.725 ± 0.089 | Q -0.959 ± 0.27 | F -0.861 ± 0.17 | T -0.733 ± 0.17 | N -0.766 ± 0.24 | A -0.808 ± 0.13 | C -0.793 ± 0.12 | V -0.783 ± 0.099 | Y -0.554 ± 0.25 | E -0.879 ± 0.17 | G -0.813 ± 0.083 | P -0.824 ± 0.19 | I -0.813 ± 0.21
K46: H -0.909 ± 0.19 | A -0.898 ± 0.16 | I -0.465 ± 0.14 | T -0.748 ± 0.13 | W -0.856 ± 0.15 | E -0.734 ± 0.16 | R -0.796 ± 0.09 | F -0.917 ± 0.17 | D -0.886 ± 0.16 | G -0.846 ± 0.099 | Y -0.856 ± 0.15 | P -0.875 ± 0.13 | L -0.593 ± 0.089 | S -0.838 ± 0.1 | N -0.886 ± 0.16 | Q -0.485 ± 0.1
Q47: A -0.114 ± 0.1 | D -0.289 ± 0.11 | W -0.475 ± 0.11 | I 0.132 ± 0.12 | N 0.087 ± 0.11 | S -0.05 ± 0.081 | G -0.483 ± 0.088 | F -0.318 ± 0.13 | L -0.374 ± 0.094 | R -0.084 ± 0.078 | Y -0.343 ± 0.16 | T 0.022 ± 0.099 | K 0.239 ± 0.12 | M -0.452 ± 0.14 | E -0.052 ± 0.11 | C -0.423 ± 0.096 | P -0.804 ± 0.16 | H -0.051 ± 0.14
S48: M 0.016 ± 0.091 | F -0.236 ± 0.11 | W -0.412 ± 0.1 | T -0.124 ± 0.096 | G -0.206 ± 0.087 | L -0.01 ± 0.076 | Y 0.093 ± 0.13 | A 0.07 ± 0.078 | D 0.043 ± 0.12 | K 0.043 ± 0.097 | R 0.14 ± 0.075 | V -0.011 ± 0.075 | Q -0.053 ± 0.1 | H 0.119 ± 0.12 | P -0.628 ± 0.13 | C -0.083 ± 0.12 | E 0.067 ± 0.087
H52: Y -0.254 ± 0.12 | P -0.363 ± 0.15 | N 0.023 ± 0.18 | E 0.139 ± 0.16 | R 0.058 ± 0.08 | C -0.103 ± 0.13 | V -0.016 ± 0.11 | L -0.017 ± 0.13 | G 0.022 ± 0.082 | I -0.29 ± 0.15 | M -0.18 ± 0.13 | T 0.185 ± 0.14 | D -0.177 ± 0.15 | K 0.088 ± 0.18 | S 0.106 ± 0.1
Y49: V -0.877 ± 0.1 | T -0.916 ± 0.11 | K -0.658 ± 0.15 | F -0.7 ± 0.18 | A -0.783 ± 0.12 | R -1 ± 0.13 | M -0.747 ± 0.13 | G -0.811 ± 0.1 | Q -0.997 ± 0.21 | W -0.951 ± 0.15 | I -1.13 ± 0.24 | S -0.953 ± 0.13 | C -1.01 ± 0.18 | L -0.751 ± 0.12 | P -0.696 ± 0.15
L44: C -0.293 ± 0.13 | F -0.201 ± 0.11 | V 0.074 ± 0.074 | W -0.302 ± 0.18 | A -0.014 ± 0.069 | E -0.211 ± 0.15 | R 0.058 ± 0.072 | Y -0.089 ± 0.084 | N -0.131 ± 0.092 | G -0.342 ± 0.073 | H -0.034 ± 0.077 | D -0.16 ± 0.087 | K 0.111 ± 0.2 | S -0.015 ± 0.069 | Q -0.11 ± 0.12 | P -0.91 ± 0.098 | M 0.085 ± 0.13
F45: V -0.616 ± 0.1 | R -0.757 ± 0.099 | M -0.283 ± 0.13 | E -0.735 ± 0.28 | N -0.627 ± 0.12 | I -0.423 ± 0.085 | S -0.444 ± 0.077 | T -0.64 ± 0.12 | H 0.119 ± 0.09 | G -0.856 ± 0.12 | K -0.391 ± 0.15 | Q -0.71 ± 0.16 | D -0.568 ± 0.12 | L -0.388 ± 0.08 | C -0.306 ± 0.11 | A -0.013 ± 0.085 | W -0.279 ± 0.13 | P -0.857 ± 0.11
